In article PMC6650547 (mBio, 2019):

Molecular target: T1, His-SUDV-NP(34-367) (Sudan virus (SUDV), strain Boniface, UniProt Q9QP77 34-367)
T1 sequence: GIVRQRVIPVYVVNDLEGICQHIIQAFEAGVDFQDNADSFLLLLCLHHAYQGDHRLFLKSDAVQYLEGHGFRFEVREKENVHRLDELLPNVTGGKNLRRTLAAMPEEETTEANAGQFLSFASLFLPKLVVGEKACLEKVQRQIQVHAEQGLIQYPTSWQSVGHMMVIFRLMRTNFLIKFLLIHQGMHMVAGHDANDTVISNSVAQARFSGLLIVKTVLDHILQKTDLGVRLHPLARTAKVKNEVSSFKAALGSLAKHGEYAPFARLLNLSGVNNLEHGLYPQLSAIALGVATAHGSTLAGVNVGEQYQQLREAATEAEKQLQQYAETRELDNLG
Experiment: BLI; […] ([…]), 60 s association, 60 s dissociation; […]; Octet Red
Conditions: both partners purified

MQQDRTYRHHGPEVSGWFSEQLMTGKIPLTEVFV [SUDV VP35 wild-type chaperone domain peptide (residues 1 to 34)] was tested. Which Kd did it give?
The Kd was roughly 3.86 nM.
